Changes are numbered by the printed parent chain.
T1: hiR2-FL-K536-T7 (deletion of K536) (human, UniProt Q6PJF5 1-856)
T1 construct: single amino acid deletion
T1 sequence: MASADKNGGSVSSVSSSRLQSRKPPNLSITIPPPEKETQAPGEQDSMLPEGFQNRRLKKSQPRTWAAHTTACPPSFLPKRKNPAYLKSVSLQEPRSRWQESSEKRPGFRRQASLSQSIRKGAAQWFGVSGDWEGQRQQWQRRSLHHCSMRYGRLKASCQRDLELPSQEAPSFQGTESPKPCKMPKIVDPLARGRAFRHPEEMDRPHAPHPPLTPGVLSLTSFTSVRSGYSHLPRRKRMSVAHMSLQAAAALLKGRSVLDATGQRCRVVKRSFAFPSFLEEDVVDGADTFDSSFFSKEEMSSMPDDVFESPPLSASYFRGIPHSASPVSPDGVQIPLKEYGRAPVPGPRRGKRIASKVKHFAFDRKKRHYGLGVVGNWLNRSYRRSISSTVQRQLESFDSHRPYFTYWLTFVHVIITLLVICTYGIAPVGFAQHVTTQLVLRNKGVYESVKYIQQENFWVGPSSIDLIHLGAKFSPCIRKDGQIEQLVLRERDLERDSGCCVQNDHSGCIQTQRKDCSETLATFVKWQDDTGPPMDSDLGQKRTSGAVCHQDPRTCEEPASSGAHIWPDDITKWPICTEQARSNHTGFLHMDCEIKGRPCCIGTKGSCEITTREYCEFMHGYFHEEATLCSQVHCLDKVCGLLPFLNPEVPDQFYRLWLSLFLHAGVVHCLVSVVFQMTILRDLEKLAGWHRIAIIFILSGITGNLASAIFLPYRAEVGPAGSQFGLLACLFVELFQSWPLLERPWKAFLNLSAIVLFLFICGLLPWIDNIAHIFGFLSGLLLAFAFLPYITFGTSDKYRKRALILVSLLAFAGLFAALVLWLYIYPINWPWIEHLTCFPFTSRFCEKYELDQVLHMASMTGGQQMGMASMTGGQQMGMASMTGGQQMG

T2: hiR2-FL-M534-T7 (deletion of M534) (human, UniProt Q6PJF5 1-856)
T2 construct: single amino acid deletion
T2 sequence: T1 sequence with M534D, D535K

T3: hiR2-FL-L539A-T7 (human, UniProt Q6PJF5 1-856)
T3 construct: on MEF-DKO cells
T3 sequence: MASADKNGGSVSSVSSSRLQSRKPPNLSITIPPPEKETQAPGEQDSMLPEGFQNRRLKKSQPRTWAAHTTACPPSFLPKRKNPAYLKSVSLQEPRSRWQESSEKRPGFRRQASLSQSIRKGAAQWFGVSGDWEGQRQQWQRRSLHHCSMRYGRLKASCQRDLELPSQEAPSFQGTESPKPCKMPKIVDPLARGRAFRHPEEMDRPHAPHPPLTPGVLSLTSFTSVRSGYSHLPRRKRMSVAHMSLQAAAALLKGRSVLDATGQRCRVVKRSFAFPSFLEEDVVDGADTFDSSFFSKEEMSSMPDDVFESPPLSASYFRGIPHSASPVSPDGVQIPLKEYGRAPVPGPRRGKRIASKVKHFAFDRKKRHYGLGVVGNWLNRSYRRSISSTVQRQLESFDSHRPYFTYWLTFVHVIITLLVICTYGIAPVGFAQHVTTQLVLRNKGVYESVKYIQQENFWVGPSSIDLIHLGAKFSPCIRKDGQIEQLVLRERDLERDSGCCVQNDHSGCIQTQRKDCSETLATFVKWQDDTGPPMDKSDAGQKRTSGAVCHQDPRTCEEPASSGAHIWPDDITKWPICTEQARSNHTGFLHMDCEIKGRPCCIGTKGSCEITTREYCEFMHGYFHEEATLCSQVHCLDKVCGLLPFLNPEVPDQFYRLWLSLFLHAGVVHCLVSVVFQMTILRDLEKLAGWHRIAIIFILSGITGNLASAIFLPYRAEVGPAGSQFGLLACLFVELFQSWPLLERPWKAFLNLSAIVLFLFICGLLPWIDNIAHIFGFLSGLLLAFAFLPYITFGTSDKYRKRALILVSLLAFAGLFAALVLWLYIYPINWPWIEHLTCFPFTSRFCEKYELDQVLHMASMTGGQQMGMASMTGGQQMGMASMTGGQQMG

B1: antibody 16 (antibody, V domains shown)
VH: QVTLKESGPGILQPSQTLSLTCSFSGFSLSTFALGVGWIRQPSGRGLEWLAHIWWDDDKYYNPALKSRLTISKDTSKNHVFLKIANVDTADTATYYCARITTYYYGMDYWGQGTSVTVSS
VL: DIVLSQSPATLSVTPGDSVSLFCRASQSIGNHLHWYQQESHASPRLLIKYASQSISGIPSRFSGSGSGTDFTLSINSVETEDFGMYFCQQSYNWPLTFGAGTKLELK
notes: mouse IgG, kappa light chain; also called clone #16; purified antibody 16
B2: antibody 3 (antibody, V domains shown)
VH: QVTLKESGPGILQPSQTLSLTCSFSGFSLTTFAMGIGWVRQPSGKGLEWLAHIWWDGEKYNNPVLKSRLTISKDTSKNQVFLRIANVDTPDTATYYCARISSIYYIIDNWGQGTSVTVSS
VL: B1 VL with S5T, D17H, F22S, G30S, H32N, Q38K, E39K, A42E, A51V
notes: mouse IgG, kappa light chain; also called clone #3; purified antibody 3
B3: antibody 34 (antibody, V domains shown)
VH: QVTLKESGPGILQPSQTLSLTCSFSGFSLSTFSLGVGWIRQSSGKGLEWLAHIWWDDEKYYNPALKSRLTISKDTSKNQVFLKIANVDAADTATYYCARAYYSKSYYALDYWGQGTSVTVSS
VL: DIQMTQSPSSLSASLGERVSLTCRASQEISGYLSWLQQKPDGTIKRLIYAASTLDSGVPKRFSGSRSGSDYSLAISSLESEDFADYYCLQYANFPFTFGSGTKLEIK
notes: mouse IgG, kappa light chain; also called clone #34; purified antibody 34
B4: antibody 5 (antibody, V domains shown)
VH: QVTLKESGPGILQPSQTLSLTCSFSGFSLSTFGMGVGWIRQPSGKGLEWLAHIWWDDEKYYNSALKSRLTISKATSKNQAFLKIANVDTADTATYYCARISNYGSNYWYFNVWGTGTTVTVSS
VL: QVVLTQSPALMSASPGEKVTMTCSAGSSVSCMYWYQQKPGSSPRVLIYDTSNLASGVPARFTGSGSGTSYSLTISRMEAEDAASYYCQQWNSYPLTFGAGTKLELK
notes: mouse IgG, kappa light chain; also called clone #5; purified antibody 5
B5: antibody 44 (antibody, V domains shown)
VH: B4 VH with G44E, E58D, S63P, A74D, A80I, A85T, D91E, A98S, S101G, N111D
VL: QIVLTQSPAVMSASPGEKVTMTCTASSSVYYMYWYQQTPGSSPRLLIYDTSNLASGVPVRFSGSGSGTSYSLTISRMEAEDAATYYCQQWNTYPLTFGAGTKLELK
notes: mouse IgG, kappa light chain; also called clone #44; purified antibody 44
B6: antibody 43 (antibody, V domains shown)
VH: B4 VH with T3A, P42S, H52N, E58D, S63P, A74D, T75A, S101G, N111D
VL: QIVLTQSPAIMSASPGERVTMTCSANSRISYMYWYQQKPGSSPRLLIYDTSNLASGVPVRFSGSGSGTSYSLTISRMEAEDAATYNCQQWSSYPLTFGAGTKLELK
notes: mouse IgG, kappa light chain; also called clone #43; purified antibody 43
B7: antibody 42 (antibody, V domains shown)
VH: B4 VH with F24L, M34R, S63P, A74D, A80V, K83R, S101Q, N111D
VL: B6 VL with Q1L, R18K, S24G, N26T, Y33F, L45V, M77V, A82V, N86Y, S91N
notes: mouse IgG, kappa light chain; also called clone #42; purified antibody 42
B8: antibody 22 (antibody, V domains shown)
VH: B4 VH with A80V
VL: B4 VL with C31Y, S84T
notes: mouse IgG, kappa light chain; also called clone #22; purified antibody 22
B9: antibody 48 (antibody, V domains shown)
VH: QVQLQQSGTELVRPGTSVKVSCKASGYAFTNYLIEWVKQRPGQGLEWIGVINPGSGFTKYNEKFKGKATLTADKSSSTVYMHLSSLTSEDSAVYFCARGLYRAMDYWGQGTSVTVSS
VL: DIQMTQSPASQSASLGESVTITCLASQTIATWLAWYQQKPGKSPQLLIYGATTLADGVPSRFSGGGSGTKFSFKISSLQAEDFVSYYCQQLYSTPYTFGGGTKLEIK
notes: mouse IgG, kappa light chain; also called clone #48; purified antibody 48
B10: antibody 50 (antibody, V domains shown)
VH: B9 VH with T9A, T16A, T30S, V79A, H82Q
VL: B9 VL with A30G, G50A, T52A, T53S, S85N, L91I
notes: mouse IgG, kappa light chain; also called clone #50; purified antibody 50

Each binder was assayed against T1, hiR2-FL-K536-T7 (deletion of K536) (assay: FACS on MEF-DKO cells).

Row | Binder | binding result
1 | B1 | no binding (tested: 3 µg/ml)
2 | B2 | no binding (tested: 3 µg/ml)
3 | B3 | no binding (tested: 3 µg/ml)
4 | B4 | no binding (tested: 3 µg/ml)
5 | B5 | no binding (tested: 3 µg/ml)
6 | B6 | no binding (tested: 3 µg/ml)
7 | B7 | no binding (tested: 3 µg/ml)
8 | B8 | no binding (tested: 3 µg/ml)

The binders below were run against T2, hiR2-FL-M534-T7 (deletion of M534) (assay: FACS on MEF-DKO cells).

Row | Binder | binding result
9 | B1 | no binding (tested: 3 µg/ml)
10 | B2 | no binding (tested: 3 µg/ml)
11 | B3 | no binding (tested: 3 µg/ml)
12 | B4 | no binding (tested: 3 µg/ml)
13 | B5 | no binding (tested: 3 µg/ml)
14 | B6 | no binding (tested: 3 µg/ml)
15 | B7 | no binding (tested: 3 µg/ml)
16 | B8 | no binding (tested: 3 µg/ml)

What follows are binders tested against T3, hiR2-FL-L539A-T7 (assay: FACS on MEF-DKO cells).

Row | Binder | binding result
17 | B3 | no binding (tested: 3 µg/ml)
18 | B4 | no binding (tested: 3 µg/ml)
19 | B5 | no binding (tested: 3 µg/ml)
20 | B6 | no binding (tested: 3 µg/ml)
21 | B7 | no binding (tested: 3 µg/ml)
22 | B8 | no binding (tested: 3 µg/ml)

The binders below were run against T4, mouse iR1 wild type (mouse) (assay: FACS, MEF-DKO cells, 3 µg/ml).
T4 construct: wild type, expressed on cells; also called mouse iRhom1 wild type

Row | Binder | loss of binding vs wild type
23 | B1 | ≥ 95%
24 | B2 | ≥ 95%
25 | B3 | ≥ 95%
26 | B4 | ≥ 95%
27 | B5 | ≥ 95%
28 | B6 | ≥ 95%
29 | B7 | ≥ 95%
30 | B8 | ≥ 95%
31 | B9 | ≥ 60%
32 | B10 | ≥ 95%

— patent publication US20240287172A1 (SCIRHOM, published 2024)
